The assay concerns IPSC-derived endoderm cells. The assay can be described thus: Endoderm differentiation of IPSCs with R-spo1 added, flow cytometry for EpCAM. Conditions: 5 ng/ml R-spo1 added to endoderm medium. Format: cell-based, human. The protocol:
To start with, IPSCs were differentiated into definitive endoderms in a medium containing 100 ng/mL Activin A, 50 ng/mL Wnt3a, and 5 ng/mL R-spo1factors for 5 days (FIG. 1A). During the definitive endoderm development stage, the parenchymal cells of the liver derive from a specific germ layer. […] In particular, it is evident that following independent differentiations, the percentage of CXCR4+/EpCAM+ endodermal cells derived from three independent IPSC lines (WT1, WT2 and WT3) is not too different from one another, and that the endodermal induction step of the protocol can be repeated (FIG. 1B). At this point of the assay, the differentiation medium was modified to obtain more EpCAM+ endoderm cells. Wnt signalling pathway agonist and 5 ng/ml R-spo1, which is known to play a significant role in stem cell growth, were added to the endoderm medium. […] As a result, this protocol enables IPSCs to differentiate into more EpCAM+endoderm cells in two-dimensional mediums.
For orientation: A flow cytometer gives signals particle by particle.

Entries after “also recorded” stand apart in the source; their conditions may differ.

B1: R-spo1: Wnt signalling pathway agonist known to play a significant role in stem cell growth, added to the endoderm medium (protein, UniProt Q2MKA7 21-263, looked up)
R-spondin-1: SRGIKGKRQRRISAEGSQACAKGCELCSEVNGCLKCSPKLFILLERNDIRQVGVCLPSCPPGYFDARNPDMNKCIKCKIEHCEACFSHNFCTKCKEGLYLHKGRCYPACPEGSSAANGTMECSSPAQCEMSEWSPWGPCSKKQQLCGFRRGSEERTRRVLHAPVGDHAACSDTKETRRCTVRRVPCPEGQKRRKGGQGRRENANRNLARKESKEAGAGSRRRKGQQQQQQQGTVGPLTSAGPA
Regarding B1, the “morphology of the cells” value (DIC images) is given as “not affected negatively”. The “EpCAM ratio / number of EpCAM (+) cells” value (flow cytometry, three healthy IPSCs) was “causes an increase in the number of EpCAM (+) cells; also recorded: increases the EpCAM ratio considerably”.

Source of the values: patent US20230392122A1, “LONG-TERM AND FUNCTIONAL CULTURE OF HEPATIC ORGANOIDS (eHEPO) DERIVED FROM EPCAM+ ENDODERMAL PROGENITOR CELLS DIFFERENTIATED FROM INDUCED PLURIPOTENT STEM CELLS” (DOKUZ EYLUL UNIVERSITESI REKTORLUGU, priority 2020, published 2023).
